In article PMC2266626:

Assays:
Assay in all cases: FRET or BRET
[1] = biological target: YFP-α1C (α1C[1671]) (UniProt P15381)
[2] = biological target: YFP-GKC (rat)
[3] = biological target: YFP-GKC[trunc] (rat)
[4] = biological target: YFP-GKC[ΔPYDVV] (rat)

Row | FRET ratio (FR) [1] | K d,EFF (relative dissociation constant) [1] | FRET ratio (FR) [2] | K d,EFF (relative dissociation constant) [2] | effective FRET efficiency (E EFF) [2] [%] | FRET ratio (FR) [3] | K d,EFF (relative dissociation constant) [3] | effective FRET efficiency (E EFF) [3] [%] | FRET ratio (FR) [4] | effective FRET efficiency (E EFF) [4] [%] | Substance
1 | 1.68 | 11700 | 2.8 | 1870 | 10.2 | 3.7 | 3090 | 15.5 |  |  | CFP-NSH3 (domain or fragment)
2 |  |  | 5.4 |  | 25.6 |  |  |  | 5.5 | 26.1 | CFP-α1C[I-II loop] (domain or fragment)
